From patent publication US20180280504A1, “GLYCAN-INTERACTING COMPOUNDS AND METHODS OF USE” (SIAMAB THERAPEUTICS, INC., priority 2014, published 2018)
Read-outs that look alike come from different tables or passages of the source.

Assays:
MDA-MB-231-STn+ cells = assay: Cell viability assay with secondary antibody-drug conjugate (2° ADC), STn+ cells; format: cell-based, human; settings: for IC50: MDA-MB-231-STn+ cells
Method: Cell viability assays are performed to screen anti-STn antibodies of the present invention in the presence and absence of secondary antibody-drug conjugates (2° ADCs). The purpose of the screen is to identify the ability of each anti-STn antibody to inhibit cell growth. Antibodies with potent cell growth inhibition are used to design direct antibody-drug conjugates (ADCs). Using such secondary antibody-drug conjugates (2° ADCs) in cell-based cytotoxic assays can quickly pre-screen many ADC candidates against tumor cells. Based on the assay, a naked antibody candidate is directly added to cells in the presence of a 2° ADC. Internalization of the mAb/2° ADC complex into cells that express a high density of the targeted antigen can achieve a dose-dependent drug release within the cells, causing a cytotoxic effect to kill the cells (e.g., tumor cells), while cells expressing a low density of the targeted antigen are not affected (e.g., normal cells).
To perform cell viability assays, cell lines described in the present application (MDA-MB-231 parental, MDA-MB-231-STn+, and OV-90) are prepared and cultured for the assays. The cell culture is optimized for cell density by plating different densities of cells (e.g., 2,000, 4,000 and 7,500 per well) on a 96-well plate and observing the cell growth for 96 hours. The plating condition in which cells reach around 90% confluence at the end of the 96 hours is identified and the optimal cell number is then used in the final viability assay.
Duplicate or triplicate cell plates for each cell line are used for testing each antibody candidate.
For cell viability assays, data points are collected for each antibody candidate with duplicates for each data point. Each antibody candidate is diluted in serial concentrations from 0.3 pM to 20 nM.
Alternatively, data points are collected for each antibody candidate with triplicates for each data point. Each antibody candidate is diluted in serial concentrations from 1 pM to 20 nM.
Cell viabilities are measured by Cell-Titer Glo luminescence based assays.
Three anti-STn monoclonal antibodies (anti-STn antibodies S3F, 7G9 and 2D4) and an anti-EGFR monoclonal antibody LA22 were tested for internalization. Six plates of cell culture, two per cell line (MDA-MB-231 parental, MDA-MB-231-STn+, and OV-90), were used to assay the antibody candidates. Each plate can be used to assay the four antibody candidates simultaneously. A secondary anti-IgG antibody conjugated to MMAF (monomethyl auristatin phenylalanine), a non-permeable Aurastatin analog, was used as the 2° ADC. Cell viability was then measured using CellTitreGlo Luminescent Cell Viability Assay (Promega, Madison, Wis.).

[1] = test system: STn on bovine submaxillary mucin (BSM); assay: Anti-STn BSM ELISA, non-treated and periodate-treated wells; format: binding; settings: for hybridoma screening: specificity for STn: BSM ELISA without and after periodate treatment
Method: Anti-STn serum titer is determined using a murine anti-STn bovine submaxillary mucin (BSM) ELISA together with serum profiles observed by glycan microarray. 96-well plates are coated with 1 μg/well of BSM and incubated overnight at 4° C. O-acetylation of BSM antigen is removed by treating wells with 0.1 M sodium hydroxide. Specific binding to STn is determined by treatment of wells with sodium periodate. Periodate treatment destroys the […] side chain of sialic acid; therefore antibodies raised against STn should not bind to periodate-treated wells. Wells are blocked with PBS 1% ovalbumin (OVA). Serum samples to be assayed are serially diluted in PBS 1% OVA. A commercially available mouse anti-STn monoclonal antibody, 3F1 (SBH Sciences, Natick, Mass.) is used as a positive control. This antibody is also serially diluted in PBS with 1% OVA. A pool of serum from naïve wild type mice is used for the preparation of negative control samples. Detection of anti-STn antibodies present in serum is determined using an HRP-conjugated polyclonal goat anti-mouse IgG antibody (Jackson Immunoresearch, West Grove, Pa.). The reaction is stopped by addition of sulfuric acid (1.6 M). Optical densities are measured at 490 nm using a Spectramax microplate reader (Molecular Devices, Sunnyvale, Calif.). The serum titer is obtained by comparison of OD values with a cutoff value calculated as two standard deviations above the mean of optical density values of the negative control. Sample tests are considered positive if the mean optical density value is greater than the cutoff value.
Binding affinities of 18D2 and 18C7 to STn were compared to commercially available anti-STn antibodies using the BSM ELISA assay described in Example 2. Commercial anti-STn antibodies used for comparison included 3F1 (SBH Sciences, Natick, Mass.,) TAG-72 clone B72.3 (Thermo Fisher Scientific, Waltham, Mass.,) TAG-72 clone CC49 (Santa Cruz Biotechnology, Santa Cruz, Calif.) as well as a negative control antibody against c-myc (Thermo Fisher Scientific, Waltham, Mass.). Each antibody was titrated using a 7-point, 1:5 serial dilution starting from 100 nM. Titrated antibodies were added to BSM ELISA plates containing wells that were non-treated or treated with sodium periodate. Antibody binding was determined using HRP-conjugated polyclonal goat anti-mouse IgG antibody (Jackson Immunoresearch Laboratories, West Grove, Pa.). The reaction was developed using an HRP substrate and stopped with 1.6 M sulfuric acid. Optical densities were measured at 490 nm using a Spectramax microplate reader. […] The half maximal effective concentration (EC50) for each antibody was calculated using a non-linear regression analysis carried out on periodate subtracted data.

[2] = with 2° ADC Fab αMFc-CL-MMAF, CellTitreGlo, read-out: IC50 (nM), secondary internalization assay

B1: S3F: 3F1 variable domains combined with IgG2a constant domains; heavy chain SEQ ID NO: 63, light chain SEQ ID NO: 64 (antibody)
heavy: QVQLQQSDAELVKPGASVKISCKASGYTFTDHAIHWVKQKPEQGLDWIGYISPGNGDIKYNEKFKDKVTLTADKSSSTACMHLNSLTSEDSAVYFCKRSLLALDYWGQGTTLTVSSAKTTAPSVYPLAPVCGDTTGSSVTLGCLVKGYFPEPVTLTWNSGSLSSGVHTFPAVLQSDLYTLSSSVTVTSSTWPSQSITCNVAHPASSTKVDKKIEPRGPTIKPCPPCKCPAPNLLGGPSVFIFPPKIKDVLMISLSPIVTCVVVDVSEDDPDVQISWFVNNVEVHTAQTQTHREDYNSTLRVVSALPIQHQDWMSGKEFKCKVNNKDLPAPIERTISKPKGSVRAPQVYVLPPPEEEMTKKQVTLTCMVTDFMPEDIYVEWTNNGKTELNYKNTEPVLDSDGSYFMYSKLRVEKKNWVERNSYSCSVVHEGLHNHHTTKSFSRTPGK
light: DIVMTQSHKFMSTSVGDRVSITCKASQDVGTNIAWYQQKPGRSPKVLIYSASTRHTGVPDRFTGSGSGTDFTLTISNVQSEDLTDYFCQQYSSFPLTFGVGTKLELKRADAAPTVSIFPPSSEQLTSGGASVVCFLNNFYPKDINVKWKIDGSERQNGVLNSWTDQDSKDSTYSMSSTLTLTKDEYERHNSYTCEATHKTSTSPIVKSFNRNEC
MDA-MB-231-STn+ cells; unit inferred, b641, read-out: IC50 in the presence of Fab αMFc-CL-MMAF
  IC50: 0.124 nM
MDA-MB-231-STn+ cells; [2]
  IC50: 0.058 nM
MDA-MB-231-STn+ cells; with 2° ADC Fab αMFc-CL-MMAF
  activity in MDA-MB-231-STn+ cells: demonstrate activity

B2: 18C7: anti-STn mouse monoclonal, IgG2c κ, from mouse #4436; VH SEQ ID NO: 4, VL SEQ ID NO: 5 (antibody, V domains shown)
VH: QVTLKESGPGILQPSQTLSLTCSFSGFSLSTFGMGVGWIRQPSGKGLEWLAHIWWDDDKYYNPALKSRLTISKDTSKNQVFLKIANVDTADTATYYCARIAYYYGSERDYWGQGTTLTVSS
VL: QIVLTQSPAIMSASPGEKVTMTCSASSSISYMHWYHQKPGTSPKRWIYDTSKLASGVPARFSGSGSGTSYSLTISSMEAEDAATYYCHQRSSYTFGGGTKLEIKR
[1]
  hybridoma screening: specificity for STn: specific for STn
[1]; BSM ELISA, wells not treated with sodium periodate
  binding to non-treated wells: bound non-treated wells
[1]; BSM ELISA, wells treated with sodium periodate
  binding to periodate-treated wells: did not bind to periodate-treated wells
[1]; non-linear regression on periodate subtracted data, 7-point 1:5 dilution from 100 nM
  EC50: 62.5 nM

B3: 10A5: anti-STn mouse monoclonal, IgG2c κ, from mouse #4406; VH SEQ ID NO: 6, VL SEQ ID NO: 7 (antibody, V domains shown)
VH: QVQLKESGPGLVAPSQSLSITCTVSGFSLTSYGVSWVRQPPGKGLEWLGVIWGDGSTNYHSSLISRLSISKDNSKSQVFLKLNSLQTDDTATYYCARAFVYWGQGTLVTVSA
VL: QIVLTQSPAIMSASPGEKVTMTCSASSSVSYIHWYQQKSGTSPKRWIYDTSKLASGVPARFSGSGSGTSYSLTISSMEAEDAATYYCQQWSSNPPMLTFGAGTKLELK
[1]
  hybridoma screening: specificity for STn: specific for STn

B4: 7G9: anti-STn mouse monoclonal, IgG2b κ, from mouse #4407; VH SEQ ID NO: 12, VL SEQ ID NO: 9 (antibody, V domains shown)
VH: QVQLKESGPGLVAPSQNLSITCTVSGFSLTSYGVNWVRQPPGKGLEWLGVIWGDGSTNYHSALISRLIISKENSKSQVFLKLNSLQTNDTATYYCTKGFVYWGQGTLVTVSA
VL: QIVLTQSPAIMSASPGEKVTMTCSASSSVSYMHWYQQKSGTSPKRWIFDTSKLASGVPARFSGSGSGTSYSLTISSMEAEDAATYYCQQWSSNLLTFGAGTKLELK
MDA-MB-231-STn+ cells; [2]
  IC50: 0.181 nM
MDA-MB-231-STn+ cells; with 2° ADC Fab αMFc-CL-MMAF
  activity in MDA-MB-231-STn+ cells: demonstrate activity
[1]
  hybridoma screening: specificity for STn: specific for STn

B5: 8C11: anti-STn mouse monoclonal, IgG2b κ, from mouse #4407; VH SEQ ID NO: 8, VL SEQ ID NO: 9 (antibody, V domains shown)
VH: QVQLKESGPGLVAPSQSLSITCTVSGFSLTSYGVSWVRQPPGKGLEWLGVIWGDGSTNYHSALISRLIISKDNSKSQVFLKLNSLQTDDTATYYCTKGFTYWGQGTLVTVSA
VL: QIVLTQSPAIMSASPGEKVTMTCSASSSVSYMHWYQQKSGTSPKRWIFDTSKLASGVPARFSGSGSGTSYSLTISSMEAEDAATYYCQQWSSNLLTFGAGTKLELK
[1]
  hybridoma screening: specificity for STn: specific for STn

B6: 2D4: anti-STn mouse monoclonal, IgG2b κ, from mouse #4407; VH SEQ ID NO: 10, VL SEQ ID NO: 11 (antibody, V domains shown)
VH: QVQLQESGPGLVAPSQSLSITCTVSGFSLISYGVNWVRQPPGKGLEWLGVIWGDGSTNYQSALISRLIISKDNSKSQVFLKLNSLQTDDTATYYCTKGFAYWGQGTLVTVSA
VL: QIVLTQSPAIMSASPGEKVTMTCSASSSVSYMHWFQQKSGTSPKRWIYDTSKLASGVPARFSGSGSGTSYSLTISSMEAEDAATYYCQQWSSNLLTFGAGTKLELK
MDA-MB-231-STn+ cells; [2]
  IC50: 0.056 nM
MDA-MB-231-STn+ cells; with 2° ADC Fab αMFc-CL-MMAF
  activity in MDA-MB-231-STn+ cells: demonstrate activity
[1]
  hybridoma screening: specificity for STn: specific for STn
